# Reference: patent US20240002497A1 (Merck Sharp & Dohme, published 2024)
# Where a chain is given by its changes, count along the chain named. Numbers in names are those of the source.
# B1: F010302379 (bispecific antibody)
# chain: DVQLVESGGGLVQPGGSLRLSCAASGSIFNINSMAWYRRAPGKQRELVASSTNGGSTNYADSVKGRFTISRDNAKRVYLQMNSLTPEDTAVYYCRALLQPSIYDISRTYWGQGTLVTVSSGGGGSGGGGSGGGGSGGGGSGGGGSGGGGSGGGGSGGGGSGGGGSGGGGSEVQLVESGGGLVQAGGSLRLSCAASGRTFSRYQMGWFRQAPGKEREFVAYISWSGSTRYVDSVKGRFTISRDNAKNTVYLQMNSLKPEDTAVYHCAAGTAGIISSRPETYDSWGQGTQVTVSSGAADYKDHDGDYKDHDIDYKDDDDKGAAHHHHHH
# notes: also called F0103275B05(E1D, N93R)-50GS-F0103500E03(P14A, L108Q)-FLAG3-HIS6
# B2: F010302378 (bispecific antibody)
# chain: DVQLVESGGGLVQPGGSLRLSCAASGSIFNINSMAWYRRAPGKQRELVASSTNGGSTNYADSVKGRFTISRDNAKRVYLQMNSLTPEDTAVYYCRALLQPSIYDISRTYWGQGTLVTVSSGGGGSGGGGSGGGGSGGGGSGGGGSGGGGSGGGGSGGGGSGGGGSGGGGSEVQLVESGGGLVQAGSSLSLSCAASGRALSTYAMGWFRQAPGKEREFVARISRSGITTYYTDSVKGRFTISRDRAKDTVYLQMNSLKPEDTAIYLCAADASTNPAGYYLRNRYDYWGQGTLVTVSSGAADYKDHDGDYKDHDIDYKDDDDKGAAHHHHHH
# notes: also called F0103275B05(E1D, N93R)-50GS-F0103495F09-FLAG3-HIS6
# B3: F010302377 (bispecific antibody)
# chain: DVQLVESGGGLVQPGGSLRLSCAASGSIFNINSMAWYRRAPGKQRELVASSTNGGSTNYADSVKGRFTISRDNAKRVYLQMNSLTPEDTAVYYCRALLQPSIYDISRTYWGQGTLVTVSSGGGGSGGGGSGGGGSGGGGSGGGGSGGGGSGGGGSGGGGSGGGGSGGGGSEVQLVESGGGLVQAGGSLRLSCAASKSILSFAYMRWYRQAPGKQREFVASIAIGGATSYTDSVKGRFTISRDNAKNTVYLQMNSLKPEDTAVYYCSAPAGQYRGQGTLVTVSSGAADYKDHDGDYKDHDIDYKDDDDKGAAHHHHHH
# notes: also called F0103275B05(E1D, N93R)-50GS-F0103492E09-FLAG3-HIS6
# B4: F010301886 (VHH)
# VHH: EVQLVESGGGLVQPGGSLRLSCATTSRAFIRDVFTGWYRRVPGKERELVARIYNGGNTQYADFAKGRFSISRDNAKKMVTLRMSNLKPEDTGVYYCLFSGTINTGREYRSGDYWGQGTLVTVSS
# notes: also called F0103464B09(N58Q); N58Q
# B5: F010301892 (VHH)
# VHH: B4 VHH with V33L, Q59N
# notes: also called F0103464B09(V33L); V33L
# B6: F010301888 (VHH)
# VHH: B4 VHH with S26H, Q59N
# notes: also called F0103464B09(S26H); S26H
# Target: Rhesus Nav1.7α (rhesus, UniProt Q15858 1-1988 (human entry))
# Assay: cell-based or functional assay
row,Binder,Qpatch IC50
1,B1,133 nM
2,B2,103 nM
3,B3,104 nM

# Target: T1, huNav1.7α + β1-β2-β3 (human, UniProt Q15858 1-1988; A5A6L6 19-218; O60939 30-215; Q2KI11 23-215)
# Assay: cell-based or functional assay
row,Binder,Qpatch IC50
1,B1,3.4 nM
2,B2,2.3 nM
3,B3,0.8 nM

# Target: T2, huNav1.7α (human, UniProt Q15858 1-1988)
# Assay: cell-based or functional assay
row,Binder,Qpatch IC50
1,B1,111 nM
2,B2,115 nM
3,B3,74 nM

# Target: rhNav1.7α + β1-β2-β3 (rhesus monkey)
# Assay: cell-based or functional assay
row,Binder,Qpatch IC50
1,B1,131 nM
2,B2,2.6 nM
3,B3,75 nM

# Target: T3, rhNav1.7α + β1-β2-β3 (rhesus monkey)
# T3 construct: also called rhNav1.7-beta1-beta2-beta3; rhNav1.7-β1-β2-β3
# Assay: competition FACS vs EC40 of F103275B05(N93R), CHO FlpIn
row,Binder,IC50
1,B1,4.8 nM
2,B2,6.6 nM
3,B3,1.2 nM

# Target: T1, huNav1.7α + β1-β2-β3
# Assay: competition FACS vs EC25 of F103275B05(N93R), CHO FlpIn
row,Binder,IC50
1,B1,19 nM
2,B2,10 nM
3,B3,4.1 nM

# Target: T4, huNav1.7α + β1 (human)
# T4 construct: HEK293 cells; also called huNav1.7-beta1; huNav1.7-β1
# Assay: competition FACS vs EC25 of F103275B05(N93R), HEK
row,Binder,IC50
1,B1,150 nM
2,B2,5.2 nM
3,B3,140 nM

# Target: T2, huNav1.7α
# Assay: competition FACS vs EC25 of F103275B05(N93R), HEK
row,Binder,IC50
1,B1,85 nM
2,B2,80 nM
3,B3,86 nM

# Target: T5, rhNav1.7α + β1-β2-β3 (rhesus Nav1.7α co-expressed with Navβ1, Navβ2 and Navβ3) (rhesus monkey)
# T5 construct: also called rhNav1.7-beta1-beta2-beta3
# Assay: binding FACS; plus = higher activity than reference
row,Binder,EC50 fold change compared to reference
1,B4,2 fold
2,B5,3 fold
3,B6,3 fold

# Target: T1, huNav1.7α + β1-β2-β3
# Assay: competition FACS vs EC25 of F103275B05(N93R), HEK FlpIn
row,Binder,IC50
1,B1,16 nM
2,B2,12 nM
3,B3,5.2 nM
